Experimental findings from the RNAGym collection of RNA variant scans (doi:10.7554/elife.80360) are described below.

B1: CPEB3 Ribozyme (parent)
chain: GGGGGCCACAGCAGAAGCGUUCACGUCGCGGCCCCUGUCAGAUUCUGGUGAAUCUGCGAAUUCUGCUGU

The variants in this data set derive from B1. The data set can be described thus: self-cleavage, relative activity (ratio to wild type); higher = more cleavage; co-transcriptional.
On to GGGGGCCACAGCAGAAGCGUUCACGUCGCGGCCCCUGUCAGAUUCUGGUGGAUCUGGGAAUUCUGCUGU [A51G C57G], for which the self-cleavage stood at 0.322.

GGGGGCCACAGCAGAAGCGUUCACGUCGCGGCCCCUGUCAGAUUCUGGUGGGUCUGCGAAUUCUGCUGU [A51G A52G]: the self-cleavage turned out to be 0.925. Then GGGGGCCACAGCAGAAGCGUUCACGUCGCGGCCCCUGUCAGAUUCUGGUGCAGCUGCGAAUUCUGCUGU [A51C U53G], with 0.703; and GGGGGCCACAGCAGAAGCGUUCACGUCGCGGCCCCUGUCAGAUUCUGGUUAAUCUGCGAAUUCUCCUGU [G50U G65C], with 0.73. Then GGGGGCCACAGCAGAAGCGUUCACGUCGCGGCCCCUGUCAGAUUCUGGUUAAUCUGCGAAUUCUUCUGU [G50U G65U], with 0.809.

As to GGGGGCCACAGCAGAAGCGUUCACGUCGCGGCCCCUGUCAGAUUCUGGUGCAUCUCCGAAUUCUGCUGU [A51C G56C], the self-cleavage came to 0.57. Regarding GGGGGCCACAGCAGAAGCGUUCACGUCGCGGCCCCUGUCAGAUUCUGGUGCAUCUGCGAAUUGUGCUGU [A51C C63G], the self-cleavage is 0.699. Then GGGGGCCACAGCAGAAGCGUUCACGUCGCGGCCCCUGUCAGAUUCUGGUGCAUCUGCGAAUGCUGCUGU [A51C U62G], with 0.778; and GGGGGCCACAGCAGAAGCGUUCACGUCGCGGCCCCUGUCAGAUUCUGGUUAAUCUGCGAAUUCUGGUGU [G50U C66G], with 0.923. With GGGGGCCACAGCAGAAGCGUUCACGUCGCGGCCCCUGUCAGAUUCUGGUUAAUCUGCGAAUUCUGUUGU [G50U C66U], the self-cleavage worked out at 1.01. Then GGGGGCCACAGCAGAAGCGUUCACGUCGCGGCCCCUGUCAGAUUCUGGUUAAUCUGCGAAUUCUGAUGU [G50U C66A], with 0.824; and GGGGGCCACAGCAGAAGCGUUCACGUCGCGGCCCCUGUCAGAUUCUGGUUAAUGUGCGAAUUCUGCUGU [G50U C54G], with 0.781. Then GGGGGCCACAGCAGAAGCGUUCACGUCGCGGCCCCUGUCAGAUUCUGGUGCAUAUGCGAAUUCUGCUGU [A51C C54A], with 0.582; and GGGGGCCACAGCAGAAGCGUUCACGUCGCGGCCCCUGUCAGAUUCUGGUGGAUCUGCGACUUCUGCUGU [A51G A60C], with 0.373. As for GGGGGCCACAGCAGAAGCGUUCACGUCGCGGCCCCUGUCAGAUUCUGGUUAAUCUGCGAAUUCGGCUGU [G50U U64G], the figure is 0.864; as for GGGGGCCACAGCAGAAGCGUUCACGUCGCGGCCCCUGUCAGAUUCUGGUUAAUCUGCGAAUUCCGCUGU [G50U U64C], 0.947.

Consider GGGGGCCACAGCAGAAGCGUUCACGUCGCGGCCCCUGUCAGAUUCUGGUUAAUCUGCGAAUUGUGCUGU [G50U C63G], for which the self-cleavage was 0.844. For the variant GGGGGCCACAGCAGAAGCGUUCACGUCGCGGCCCCUGUCAGAUUCUGGUUAAUCUGCGAAUUCUGCUUU [G50U G68U], the self-cleavage was determined as 1.02. Then GGGGGCCACAGCAGAAGCGUUCACGUCGCGGCCCCUGUCAGAUUCUGGUUAAUCUCCGAAUUCUGCUGU [G50U G56C], with 0.649. As for GGGGGCCACAGCAGAAGCGUUCACGUCGCGGCCCCUGUCAGAUUCUGGUGGAUCUGCGCAUUCUGCUGU [A51G A59C], the figure is 0.747; as for GGGGGCCACAGCAGAAGCGUUCACGUCGCGGCCCCUGUCAGAUUCUGGUGGAUCUGCGGAUUCUGCUGU [A51G A59G], 0.963. As for GGGGGCCACAGCAGAAGCGUUCACGUCGCGGCCCCUGUCAGAUUCUGGUGCAUCUGCGAAUUCGGCUGU [A51C U64G], the figure is 0.841; as for GGGGGCCACAGCAGAAGCGUUCACGUCGCGGCCCCUGUCAGAUUCUGGUUAAUCUGCCAAUUCUGCUGU [G50U G58C], 0.942; as for GGGGGCCACAGCAGAAGCGUUCACGUCGCGGCCCCUGUCAGAUUCUGGUUAAUCUGCGAAUCCUGCUGU [G50U U62C], 0.866. As to GGGGGCCACAGCAGAAGCGUUCACGUCGCGGCCCCUGUCAGAUUCUGGUGCAUCUGCGAAUUCUUCUGU [A51C G65U], the self-cleavage amounted to 0.729. Then GGGGGCCACAGCAGAAGCGUUCACGUCGCGGCCCCUGUCAGAUUCUGGUGCUUCUGCGAAUUCUGCUGU [A51C A52U], with 0.864; and GGGGGCCACAGCAGAAGCGUUCACGUCGCGGCCCCUGUCAGAUUCUGGUGCAUCGGCGAAUUCUGCUGU [A51C U55G], with 0.576. Then GGGGGCCACAGCAGAAGCGUUCACGUCGCGGCCCCUGUCAGAUUCUGGUGCAUCCGCGAAUUCUGCUGU [A51C U55C], with 0.678; and GGGGGCCACAGCAGAAGCGUUCACGUCGCGGCCCCUGUCAGAUUCUGGUUAAUCUGCGAAUUCUGCAGU [G50U U67A], with 1.04; and GGGGGCCACAGCAGAAGCGUUCACGUCGCGGCCCCUGUCAGAUUCUGGUUAAUCUGCGAAUUCUGCGGU [G50U U67G], with 1.05. Then GGGGGCCACAGCAGAAGCGUUCACGUCGCGGCCCCUGUCAGAUUCUGGUGCAUCUGGGAAUUCUGCUGU [A51C C57G], with 0.38; and GGGGGCCACAGCAGAAGCGUUCACGUCGCGGCCCCUGUCAGAUUCUGGUUAAUCAGCGAAUUCUGCUGU [G50U U55A], with 0.882. Regarding GGGGGCCACAGCAGAAGCGUUCACGUCGCGGCCCCUGUCAGAUUCUGGUUAAUCGGCGAAUUCUGCUGU [G50U U55G], the self-cleavage was 0.8.

As for GGGGGCCACAGCAGAAGCGUUCACGUCGCGGCCCCUGUCAGAUUCUGGUGCAUCUGCGAAUUCUGCCGU [A51C U67C], the self-cleavage is 0.943.

On to GGGGGCCACAGCAGAAGCGUUCACGUCGCGGCCCCUGUCAGAUUCUGGUUAACCUGCGAAUUCUGCUGU [G50U U53C], for which the self-cleavage came to 0.909. For GGGGGCCACAGCAGAAGCGUUCACGUCGCGGCCCCUGUCAGAUUCUGGUUAAGCUGCGAAUUCUGCUGU [G50U U53G], the self-cleavage is 0.871. Regarding GGGGGCCACAGCAGAAGCGUUCACGUCGCGGCCCCUGUCAGAUUCUGGUGCAUCUGCGACUUCUGCUGU [A51C A60C], the self-cleavage was determined as 0.477. As for GGGGGCCACAGCAGAAGCGUUCACGUCGCGGCCCCUGUCAGAUUCUGGUGCAUCUGCGAACUCUGCUGU [A51C U61C], the figure is 0.796; as for GGGGGCCACAGCAGAAGCGUUCACGUCGCGGCCCCUGUCAGAUUCUGGUGCAUCUGCGAAGUCUGCUGU [A51C U61G], 0.551.
